# According to patent US20240076386A1 (Pfizer, published 2024):
# Changes are numbered by the printed parent chain.
# B1: anti-E-selectin antibody 0180 chimera (antibody, human IgG1, kappa, V domains shown)
# VH: EVQLQQSGAELGKPGTSVKLSCKVSGYKIRSSYMHWVNQRPGKGLEWIGRIDPANGNTIYGDKFKSKATLTSDTSSNTAYIQLSQLKSDDTAIYFCAIDIGTTFDYWGQGVMVTVSS
# VL: DIQMTQSPSFLSASVGDRVTINCKASQHINRYLNWYQQKLGEAPKLLIYDANNLQTGIPSRFSGSGSGTDFTLTISSLQPEDVATYFCLQHNSWPNTFGAGTKLELKR
# notes: rat VH/VL on effector-null human IgG1 and human kappa
# B2: anti-E-selectin antibody 0164 chimera (antibody, human IgG1, kappa, V domains shown)
# VH: EVQLQQSGAEFGKPGTSVKLSCKVSGYNIRSSYMHWVNQRPGKGLEWIGRIDPANGNTIYAEKFKIKAILTADSSSNTAYMQLSQLKSDDTAIYFCAMDLYSTSEYWGQGVMVTVSS
# VL: B1 VL with A25T, H28N, D50N, N53S, G64A, S76N, H91D, N96L, A100S, L106I
# notes: as for B1
# B3: anti-E-selectin antibody 0159 chimera (antibody, human IgG1, kappa, V domains shown)
# VH: EVQLQQSGAELGKPGTSVKLSCKVSGYNIRSTYMHWVSQRPGKGLEWIGRIDPANGNTIYAEKFKRKATLTADTSSNTAYMQLSQLKSDDRAIYFCAMEVRVSFEYWGQGVMVTVSS
# VL: DIQMTQSPSFLSASVGDRVTINCKASQNINKYLDWYQQKLGEGPKLLIYYTNNLHTGIPSRFSGSGSGTDFTLTISSLQPEDVATYFCLQHDSGYTFGAGTKLELKR
# notes: as for B1
# B4: anti-E-selectin antibody 0170 chimera (antibody, human IgG1, kappa, V domains shown)
# VH: EVQLQQSGAELGKPGTSVKLSCKVSGYSIRSTYMHWVNQRPGKGLEWVGRIDPANGNTIYAERFKNKATLTADTSSNTAYMQLSQLKSDDTAIYFCAVEILGIFDYWGQGVMVTVSS
# VL: B3 VL with N30D, G43A, I48M, Y50N, N53S, D92N
# notes: as for B1
# B5: anti-E-selectin antibody 0158 chimera (antibody, human IgG1, kappa, V domains shown)
# VH: QVQLKESGPGLVQPSETLSLTCTVSGFSISTYNVHWLRQPPGKGLEWMGMMWSGGSPDYNSALKSRLSISRDTSKNQVFLKMNSLQSEDTTTYYCARWGGGFDYWGQGVMVTVSS
# VL: DIVLTQSPTTLSVTPGETVSLSCRASHSIGTNLHWYQQKTNESPRLLIKFTSQSISGIPSRFSASGSGTDFTLNINNVEFDDVSSYFCQQTQSWPLTFGSGTKLEIKR
# notes: as for B1
# B6: humanized anti-E-selectin antibody 0841 (antibody, human IgG1, kappa, V domains shown)
# VH: EVQLVESGGGLVQPGGSLRLSCAASGYNIRSSYMHWVRQAPGKGLEWVARIDPANGNTIYAEKFKIRFTISADNAKNSAYLQMNSLRAEDTAVYYCAMDLYSTSEYWGQGTLVTVSS
# VL: DIQMTQSPSSLSASVGDRVTITCKTSQNINRYLNWYQQKPGKAPKLLIYNANSLQTGVPSRFSGSGSGTDFTLTISSLQPEDFATYFCLQDNSWPLTFGQGTKVEIKR
# notes: effector-null human IgG1, kappa
# B7: optimized anti-E-selectin antibody 1284 (antibody, human IgG1, kappa, V domains shown)
# VH: B6 VH with N28A, S32A, A61V, K63S, F64V, K65E, I66G
# VL: B6 VL with N30E, N50A, N52S, T56S, S93A
# notes: as for B6
# B8: optimized anti-E-selectin antibody 1444 (antibody, human IgG1, kappa, V domains shown)
# VH: B6 VH with N28A, S32A, A61V, E62D, K63S, F64V, K65T, I66G
# VL: B6 VL with N30E, N50A, N52S, T56S, S93A
# notes: as for B6
# Molecular target: T1, human P-selectin expressed on CHO cells (human, UniProt P16109 42-830)
# T1 construct: whole, on cells; also called CHO-human P-selectin cells; CHO-P-selectin cells
# T1 sequence (looked up): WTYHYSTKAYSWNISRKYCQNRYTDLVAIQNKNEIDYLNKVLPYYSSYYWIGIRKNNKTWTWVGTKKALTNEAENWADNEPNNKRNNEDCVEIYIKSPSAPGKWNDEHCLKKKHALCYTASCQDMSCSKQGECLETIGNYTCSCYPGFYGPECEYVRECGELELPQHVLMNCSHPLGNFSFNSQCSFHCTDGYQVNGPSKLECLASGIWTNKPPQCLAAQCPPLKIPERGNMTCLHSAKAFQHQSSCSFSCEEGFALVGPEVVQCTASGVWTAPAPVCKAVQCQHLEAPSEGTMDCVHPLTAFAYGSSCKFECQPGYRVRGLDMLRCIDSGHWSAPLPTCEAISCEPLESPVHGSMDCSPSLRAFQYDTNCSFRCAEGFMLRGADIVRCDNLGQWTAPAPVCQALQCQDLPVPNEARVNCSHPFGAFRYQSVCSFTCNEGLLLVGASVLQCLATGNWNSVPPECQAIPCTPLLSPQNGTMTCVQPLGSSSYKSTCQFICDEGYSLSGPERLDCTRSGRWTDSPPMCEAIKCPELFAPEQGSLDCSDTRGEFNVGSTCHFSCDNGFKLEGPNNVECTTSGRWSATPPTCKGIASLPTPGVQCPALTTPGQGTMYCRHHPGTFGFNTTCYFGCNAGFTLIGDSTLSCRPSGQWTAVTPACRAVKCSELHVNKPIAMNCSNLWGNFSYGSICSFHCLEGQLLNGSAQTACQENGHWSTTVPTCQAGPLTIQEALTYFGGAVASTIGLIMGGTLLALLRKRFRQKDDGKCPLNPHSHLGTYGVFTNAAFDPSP
# Assay: flow cytometry, CHO cells
# Method: Cells were maintained in growth medium at 37° C., 5% CO₂ and 95% air in a humidified incubator. Methotrexate or Zeocin were removed from the medium prior to culture for experiments. CHO-E selectin cells or P-selectin cells were detached from T-150 flasks using citric saline (135 mM KCl, 15 mM sodium citrate) and immediately re-calcified with the addition of CaCl₂) to the detached cells to a final concentration of 1 mM. Growth media was immediately added to the detached cells, then centrifuged at 300×g for 5 minutes at room temperature to pellet the cells. Cells were plated into 96-well V-bottom plates in cold CHO buffer consisting of phosphate buffered saline (PBS), pH 7.4 containing bovine serum albumin (BSA; Sigma-Aldrich) at final concentration of 1%, calcium chloride at final concentration of 1 mM, and sodium azide at a final concentration of 0.1%, for 5 minutes on wet ice. After incubation, the cells were centrifuged at 300×g for 2 minutes at 4° C. to remove the buffer.
# After incubation, antibodies were removed and the cells were washed three times by centrifugation at 300×g for 1 minute at 4° C. and resuspended in cold CHO buffer. The washed cells were incubated for 30 minutes on wet ice with 100 μL of a 1:1000 dilution of APC-conjugated AffiniPure F(ab′)₂ Fragment Goat Anti-human IgG, Fcγ (Jackson Imnnunoresearch). The cells were washed three or four times prior to resuspension in CHO buffer for flow cytometric analysis. A Becton Dickinson LSRFortessa instrument using 640 nanometer laser line was used to acquire cell fluorescence data. Geometric mean fluorescence of cells was analyzed by FlowJo software package (FlowJo, LLC) and plotted against antibody concentration. The estimated EC₅₀ values were calculated using nonlinear regression analysis in the Prism suite (GraphPad, version 8) (Table 8).
row,Binder,binding result
1,B1,no binding
2,B2,no binding
3,B3,no binding
4,B4,no binding
5,B5,no binding

# Molecular target: T2, recombinant histidine-tagged human E-selectin (Sino Biologicals; 13025-H08H) (human, UniProt P16581 22-556)
# T2 construct: also called recombinant human E-selectin; soluble recombinant human E-selectin
# T2 sequence (looked up): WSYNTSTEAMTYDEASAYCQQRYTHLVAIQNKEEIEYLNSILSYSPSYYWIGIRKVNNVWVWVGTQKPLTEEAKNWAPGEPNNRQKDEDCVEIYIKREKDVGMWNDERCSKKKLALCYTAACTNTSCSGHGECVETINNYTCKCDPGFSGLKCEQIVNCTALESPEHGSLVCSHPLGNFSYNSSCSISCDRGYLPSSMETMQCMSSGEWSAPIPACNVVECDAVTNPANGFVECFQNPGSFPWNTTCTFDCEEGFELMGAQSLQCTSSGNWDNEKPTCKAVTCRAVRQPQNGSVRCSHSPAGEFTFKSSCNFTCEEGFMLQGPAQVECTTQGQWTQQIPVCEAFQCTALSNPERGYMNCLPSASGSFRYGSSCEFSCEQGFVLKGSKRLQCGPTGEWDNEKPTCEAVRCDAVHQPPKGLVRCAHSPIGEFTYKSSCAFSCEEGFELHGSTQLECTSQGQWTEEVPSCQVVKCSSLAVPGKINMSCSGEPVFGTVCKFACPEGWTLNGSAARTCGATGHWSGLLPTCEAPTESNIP
# Assay: direct binding ELISA, His-tagged selectin on plate
# Method: Recombinant histidine tagged human P-, E- or L-selectin (Sino Biologicals), mouse E-selectin (Sino Biologicals), rat E-selectin (Sino Biologicals) and Cynomolgus monkey E-selectin (Sino Biologicals) stock solutions were prepared to a final concentration of 1 μg/mL in phosphate buffered saline without calcium and magnesium. Controls included an L-selectin directed antibody (BioLegend; 304811) or P-selectin directed antibody or a negative control IgG. One hundred μL per well of the diluted recombinant selectin proteins were added into a Ni-NTA HisSorb 96 well plate (Qiagen; 35061). Plates were incubated on an orbital shaker at room temperature for 2 hours. Following the incubation, the plates were washed 3 times with 200 μL of wash buffer (50 mM TRIS [trisaminomethane]; 150 mM sodium chloride; 0.05% polysorbate 20, pH 7.4). To decrease nonspecific binding, plates were treated with 200 μL of blocking buffer (BD Opteia buffer; 555213; BD Biosciences), incubated on an orbital shaker for 1 hour at room temperature and washed as described above. […] One hundred μL specific detection antibodies (described below) were added and incubated for 1 hour: [0556] […] Anti L-selectin and anti-rat-E-selectin antibodies were detected using 1 to 25000 dilution of Peroxidase-conjugated AffiniPure Goat Anti-Mouse IgG (H+L); (Jackson ImnnunoResearch Lab).
# Plates were washed and 100 μL per well of 1-Step Ultra TMB substrate (Thermo Scientific) was added and incubated for 5 minutes at room temperature. Reactions were stopped with 100 μL of 2 M sulfuric acid and absorbance read at 450 nm (Spectramax M5e).
row,Binder,EC50 [pM]
1,B6,170
2,B7,100
3,B8,120
